Experiments:
AML12 = experiment: Senescence reversal experiment, qPCR at day 10; assay type: cell-based, mouse; conditions: 2 μg/ml for 72 hours after 7 days senescence induction; vs IgG
Procedure: FIG. 25. (25A) Schematic of senescence reversal experiment for data shown in B-D. Senescent AML12 were generated for 7 days as described above. IgG/X203/X209 (2 μg/ml) was added into the cultures at the end of senescence induction period for 72 hours; cells were harvested at day 10 for RNA extraction and subsequent qPCR experiments. Relative mRNA expression of (25B) Cdkn1a (p21), (25C) Il1β, and (25D) Il11.
Briefly, senescent AML12 were generated for 7 days as described above, but IgG/X203/X209 (2 μg/ml) was added into the cultures at the end of senescence induction period for 72 hours.
Senescent AML12 were generated by treating the cells with a sub-lethal concentration of H2O2 (0.75 mM) for 1 hour, followed by 23 hours recovery per day, for 7 days as described (Tripathi, Yen, and Singh 2020, STAR Protocols 1 (2): 100064). For prevention study, AML12 cells were treated with 2 ug/ml of either IgG or X209 during the recovery period of the senescence induction stage (from day 1 to day 7); cells were harvested for total RNA collection at day 10. For reversal study, senescence was first induced for seven days followed by 2 ug/ml of IgG, X203, or X209 treatment for 3 days; cells were harvested for total RNA collection at day 10.
Total RNA was extracted from AML12 or snap-frozen tissues using Trizol (Invitrogen) and RNeasy Mini Kit (Qiagen). […] using iScript cDNA Synthesis Kit (Biorad). Gene expression analysis was performed on duplicate samples with either TaqMan (Applied Biosystems) for Il11 (Mm00434162) or fast SYBR green (Qiagen) technology using StepOnePlus™ (Applied Biosystem) for Ccl2, Ccl5, Gapdh, Il1β, Il6, Il8, p16, p21, Tnfα, over 40 cycles. Expression data were normalized to GAPDH mRNA expression and fold change was calculated using 2^−ΔΔct method.

C57Bl/6J mice [1] = experiment: Analysis of geropathological lesions in tissue sections; assay type: in vivo, mouse; conditions: at 110 weeks; heart, lung, liver, spleen, kidney, skeletal muscle; vs IgG control antibody
Procedure: (§1) C57Bl/6J mice are randomised to receive either X203 or IgG control antibody at a dose of 40m/kg via IP injection every 3 weeks from age 55 weeks to age 110 weeks.
At 110 weeks, mice are euthanized, sections are prepared from heart, lung, liver, spleen, kidney and skeletal muscle tissues, subjected to hematoxylin and eosin or Masson's trichrome staining and analysed by light microscopy. Tissue sections are evaluated for ageing-associated lesions as described in Snider et al., Geroscience (2019) 40: 97-103 and Snyder et al., Geroscience (2019) 41: 455-465 (both hereby incorporated by reference in their entirety). Analysis is performed by a veterinary pathologist blinded to treatment group.

C57Bl/6J mice [2] = experiment: Analysis of markers of cellular senescence in tissues; assay type: in vivo, mouse; conditions: at 110 weeks; p16INK4a, p21CIP1, p53, SA-ß-gal; vs IgG control antibody
Description: as §1
At 110 weeks, tissues are harvested from the mice cells of the relevant tissues and analysed for gene and/or protein expression of p16^INK4a, p21^CIP1 and p53, and for SA-ß-gal activity.

C57BL6/J mice = experiment: Inflammatory markers in liver, kidney and muscle of old mice (QPCR); assay type: in vivo, mouse; conditions: 40 mg/kg once every three weeks, vs IgG
Procedure: (§2) FIG. 52. A neutralizing IL-11 antibody reduces multiple markers of inflammation in kidneys of old mice. Wild-type C57BL6/J mice were treated with an intra-peritoneal injection of anti-IL11 (X203; 40 mg/kg, once every three weeks) or an isotype IgG control (11E10, 40 mg/kg, once every three weeks) from 55 weeks of age until 110 weeks of age. 110 week-old mice were sacrificed and organs harvested, snap frozen and RNA extracted using standard procedures. Samples were analyzed by quantitative RT-PCR (QPCR) using primers specific for Ccl2, Ccl5, Tnfα, Il1β, Il11, Il6 or Gapdh.
as §2, with “53.” for “52.”, “livers” for “kidneys”
as §2, with “54.” for “52.”, “skeletal muscle (soleus)” for “kidneys”, “sacrificed,” for “sacrificed”, “Gapdh. […]” for “Gapdh.”
Total RNA was extracted from AML12 or snap-frozen tissues using Trizol (Invitrogen) and RNeasy Mini Kit (Qiagen). […] Expression data were normalized to GAPDH mRNA expression and fold change was calculated using 2^−ΔΔct method.

B1: X203: mouse anti-mouse IL-11 IgG antagonist antibody; VH SEQ ID NO:22, VL SEQ ID NO:23 (antibody, V domains shown)
VH: EVQLQQSGPELVKPGASVKIPCKASGYTFTDYNMDWVKQSHGKSLEWIGDINPHNGGPIYNQKFTGKATLTVDKSSSTAYMELRSLTSEDTAVYYCARGELGHWYFDVWGTGTTVTVSS
VL: DIVLTQSPASLAVSLGQRATISCRASKSVSTSGYSYIHWYQQKPGQPPKLLIYLASNLDSGVPARFSGSGSGTDFTLNIHPVEEEDAATYYCQHSRDLPPTFGGGTKLEIK
inflammation marker IL-1 b (AML12): significantly reduce
inflammation marker IL-11 (AML12): significantly reduce
senescence marker p21 (AML12): significantly reduce
geropathology lesions (C57Bl/6J mice [1]): fewer, smaller and/or less developed
levels of markers of cellular senescence (C57Bl/6J mice [2]): lower
markers of inflammation (CCL2, CCL5, TNFa, IL-1 b, IL-11 and IL-6) in kidney (C57BL6/J mice): reduces
markers of inflammation (CCL2, CCL5, TNFa, IL-1 b, IL-11 and IL-6) in liver (C57BL6/J mice): reduces
markers of inflammation (CCL2, CCL5, TNFa, IL-1 b, IL-11 and IL-6) in skeletal muscle (C57BL6/J mice): reduces
